Experimental data published in patent US20110086089A1 (UNIVERSITY HEALTH NETWORK, published 2011).

Target: T1, wt.CK2-alpha-prime immobilized on GST-beads (UniProt P19784 1-350)
T1 construct: also called GST-CK2-alpha-prime; recombinant CK2-alpha-prime; not shown: N-terminal GST tag of pGEX-2lambdaT
Test: GST pull-down of in vitro-translated His-tagged p27 mutants on GST-CK2-alpha-prime, anti-His immunoblot

T1 sequence (P19784 whole entry): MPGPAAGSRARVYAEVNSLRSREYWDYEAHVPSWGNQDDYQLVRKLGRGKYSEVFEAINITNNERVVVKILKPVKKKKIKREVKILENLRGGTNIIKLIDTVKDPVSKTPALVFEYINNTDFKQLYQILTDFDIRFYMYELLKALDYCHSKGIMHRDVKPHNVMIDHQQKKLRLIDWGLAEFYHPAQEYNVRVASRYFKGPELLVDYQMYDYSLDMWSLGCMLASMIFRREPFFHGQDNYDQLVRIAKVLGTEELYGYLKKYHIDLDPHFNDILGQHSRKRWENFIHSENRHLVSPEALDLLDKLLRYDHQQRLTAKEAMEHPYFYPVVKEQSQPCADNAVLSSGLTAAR

binding result: no binding
B1: p27deltaC (p27.1-86), in vitro-translated His-tagged truncation mutant of p27 (other)
chain: MSNVRVSNGSPSLERMDARQADHPKPSACRNLFGPVDHEELTRDLEKHCRDMEEASQRKWNFDFQNHKPLEGKYEWQEVEKGSLPE
notes: also called p27ΔC; not shown: N-terminal His-tag of pEXP2
